Patent US6566505 (THOMAS JEFFERSON UNIVERSITY, dated 2003)
Ends that are not written are not given here.

Experiments:
[1] = target: T1, bacterially expressed recombinant Mch6 (6His-C terminal tagged protein) (human, UniProt P55211 1-416); assay: inhibition of the hydrolysis of 50 µM DEVD-AMC by recombinant Mch6 after 30 min preincubation with DEVD-CHO, continuous fluorometric assay
T1 construct: also called purified Mch6 protein; mammalian ced-3 homolog 6; not shown: C-terminal 6His tag from vector pET21b
T1 chain: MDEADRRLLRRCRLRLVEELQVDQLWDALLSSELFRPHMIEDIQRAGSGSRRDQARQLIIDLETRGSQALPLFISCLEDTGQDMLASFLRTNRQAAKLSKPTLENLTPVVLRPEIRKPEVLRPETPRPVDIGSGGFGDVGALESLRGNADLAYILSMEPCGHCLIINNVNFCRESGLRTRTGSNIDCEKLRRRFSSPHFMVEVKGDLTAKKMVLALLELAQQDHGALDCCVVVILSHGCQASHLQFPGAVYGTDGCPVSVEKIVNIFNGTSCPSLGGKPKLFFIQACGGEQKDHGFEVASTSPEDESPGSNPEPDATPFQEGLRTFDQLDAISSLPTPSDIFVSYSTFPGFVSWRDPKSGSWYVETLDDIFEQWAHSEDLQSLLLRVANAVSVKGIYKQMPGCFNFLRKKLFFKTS

[2] = target: T2, wild type proMch6 (35S-labeled, in vitro translated)
T2 chain: T1 chain

[3] = target: T3, YVAD-AMC (Tyr-Val-Ala-Asp-aminomethylcoumarin)
T3 chain: YVAD

[4] = target: T4, DEVD-AMC (Asp-Glu-Val-Asp-aminomethylcoumarin)
T4 chain: DEVD

[5] = target: T5, ZEVD-AMC (carbobenzoxy-Glu-Val-Asp-aminomethylcoumarin)
T5 chain: EVD

B1: DEVD-CHO (Asp-Glu-Val-Asp-aldehyde) (peptide)
peptide: DEVD-aldehyde
notes: Tetrapeptide aldehyde substrate analog; also called DEVD-CHO peptide
Binder B1 has a Ki [1] of less than 10 nM.

B2: purified recombinant human CPP32 (protein)
chain: SGISLDNSYKMDYPEMGLCIIINNKNFHKSTGMTSRSGTDVDAANLRETFRNLKYEVRNKNDLTREEIVELMRDVSKEDHSKRSSFVCVLLSHGEEGIIFGTNGPVDLKKITNFFRGDRCRSLTGKPKLFIIQACRGTELDCGIETDSGVDDDMACHKIPVEADFLYAYSTAPGYYSWRNSKDGSWFIQSLCAMLKQYADKLEFMHILTRVNRKVATEFESFSFDATFHAKKQIPCIVSMLTKELYFYH
With B2 the “processing of 35S-labeled proMch6 (Tricine-SDS-PAGE and autoradiography)” value [2] was “CPP32 cleaves proMch6 at one site to generate two cleavage products of approximately 37 kDa or p37 and approximately 10 kDa or p10”.

B3: bacterially expressed recombinant Mch6 (6His-C terminal tagged protein) (protein)
chain: T1 chain
For B3, the Vmax/Km (YVAD-AMC) [3] was less than 0.1, the Km (DEVD-AMC) [4] was 10 µM and the Vmax/Km (DEVD-AMC) [4] was 100. For the same binder, the Vmax/Km (ZEVD-AMC) [5] was 2.7.
